The target of series [1] is T1, TcPanD (PLP-dependent L-aspartate-α-decarboxylase) (Tribolium castaneum, UniProt A7U8C7).
T1 sequence (A7U8C7 1-540): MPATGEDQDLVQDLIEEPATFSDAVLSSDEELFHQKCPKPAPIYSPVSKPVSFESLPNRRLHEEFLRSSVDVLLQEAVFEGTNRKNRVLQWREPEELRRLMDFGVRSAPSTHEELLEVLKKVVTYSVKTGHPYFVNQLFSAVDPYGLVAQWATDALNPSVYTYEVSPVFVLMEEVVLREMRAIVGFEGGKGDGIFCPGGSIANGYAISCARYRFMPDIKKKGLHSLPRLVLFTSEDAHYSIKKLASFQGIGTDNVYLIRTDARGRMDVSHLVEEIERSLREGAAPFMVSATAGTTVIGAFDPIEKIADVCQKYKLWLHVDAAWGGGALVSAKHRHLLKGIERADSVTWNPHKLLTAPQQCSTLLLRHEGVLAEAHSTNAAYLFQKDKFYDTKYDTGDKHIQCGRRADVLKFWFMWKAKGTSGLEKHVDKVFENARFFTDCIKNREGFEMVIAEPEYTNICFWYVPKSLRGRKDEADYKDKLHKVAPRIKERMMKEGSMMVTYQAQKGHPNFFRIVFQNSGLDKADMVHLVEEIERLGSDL
In words: enzyme activity versus added PLP. The format is biochemical. The following applies: 0.1 M phosphate pH 7.0, 37 °C, L-aspartate substrate.

For the next series, the system named is N[C@@H](CC(=O)O)C(=O)O. As to the kind of experiment: purified protein. Particulars: 0.1 M phosphate pH 7.0, 37 °C, L-aspartate 0.5-100 mM, apparent parameters. The format is biochemical, Tribolium castaneum.
Substrate in the series “purified protein”: N[C@@H](CC(=O)O)C(=O)O
As to the kind of experiment: purified protein. Particulars: 0.1 M phosphate pH 7.0, 37 °C, L-aspartate 0.5-100 mM, apparent parameters.

Consider three molecules from publication PMC7143960, “Protein Engineering of a Pyridoxal-5′-Phosphate-Dependent L-Aspartate-α-Decarboxylase from Tribolium castaneum for β-Alanine Production” (Molecules, 2020).

In the case of `Cc1ncc(COP(=O)(O)O)c(C=O)c1O` [pyridoxal 5’-phosphate], in series [1], the “enzyme activity versus added PLP” value is listed as “the enzymatic activities of the two proteins reached the highest levels under the treatment”.

In general, Km refers to the concentration of substrate that gives half-maximal velocity. What is called Vmax is the rate approached at saturating substrate. The term kcat denotes the number of substrate molecules converted per active site and unit of time at saturation. Usually kcat/Km stands for the turnover number divided by the Michaelis constant. In the case of “TcPanD (PLP-dependent L-aspartate-α-decarboxylase) (Tribolium castaneum; K305S/R98H)”, in the series on N[C@@H](CC(=O)O)C(=O)O, the Km came to 1230 µM, the Vmax came out at 7.05 µmol/min/mg, the kcat amounted to 7.64 s⁻¹ and the kcat/Km came to 6210 M⁻¹ s⁻¹.

B1: TcPanD (PLP-dependent L-aspartate-α-decarboxylase) (Tribolium castaneum) (protein)
chain: T1 sequence (A7U8C7 1-540)
On to B1, for which, in “purified protein”, the Km was determined as 1350 µM, the Vmax worked out at 2.88 µmol/min/mg, the kcat stood at 3.12 s⁻¹ and the kcat/Km was 2310 M⁻¹ s⁻¹.
